In the DeepSol protein solubility set:

test: soluble on expression in E. coli; label from the status in PepcDB or PDB records

Sequence	soluble on expression in E. coli
MSVSLVVIRLELAEHSPVPAGFGFSAAAGEMSDEEIKKTTLASAVACLEGKSPGEKVAIIHQHLGRREMTDVIIETMKSNPDELKTTVEERKSSEASPTAQRSKDHSKECINAAPDSPSKQLPDQISFFSGNPSVEIVHGIMHLYKTNKMTSLKEDVRRSAMLCILTVPAAMTSHDLMKFVAPFNEVIEQMKIIRDSTPNQYMVLIKFRAQADADSFYMTCNGRQFNSIEDDVCQLVYVERAEVLKSEDGASLPVMDLTELPKCTVCLERMDESVNGILTTLCNHSFHSQCLQRWDDTTCPVCRYCQTPEPVEENKCFECGVQENLWICLICGHIGCGRYVSRHAYKHFEETQHTYAMQLTNHRVWDYAGDNYVHRLVASKTDGKIVQYECEGDTCQEEKIDALQLEYSYLLTSQLESQRIYWENKIVRIEKDTAEEINNMKTKFKETIEKCDNLEHKLNDLLKEKQSVERKCTQLNTKVAKLTNELKEEQEMNKCLRANQVLLQNKLKEEERVLKETCDQKDLQITEIQEQLRDVMFYLETQQKINHLPAETRQEIQEGQINIAMASASSPASSGGSGKLPSRKGRSKRGK	soluble
MGHHHHHHSHMASLFRSYLPAIWLLLSQLLRESLAAELRGCGPRFGKHLLSYCPMPEKTFTTTPGGWLLESGRPKEMVSTSNNKDGQALGTTSEFIPNLSPELKKPLSEGQPSLKKIILSRKKRSGRHRFDPFCCEVICDDGTSVKLCT	not soluble
MGSDKIHHHHHHMKILLLNTSDARGGAAVAAMRLMETLQEAGAEVRMLVLNRNTTNPDIMALHSGRCGKTADKYRFLAERLHIYMCNGRDRSRLFHVSTALIGYDVSCHPWVRWADVIHLHWINQGFLSLRGLERLTRCGKSVVWTMHDMWPVTAICHHARECLRYRTECGACPQISSQKEKDLARLVWNRKSRVISLLRPTLIGCSHWLADLARQSALTDGLRIESIPNPIDTNLFAPGSRSDARRIMDLPTDRILLLFGAVQADDPRKGIYELSQAMKRLRERQPDLSKRIALVVFGSLRDEVRSLFPNYKLISIGYIREPSRMAELYRAADLFVIPSLEENLPNTIMEALSVGTPCVAFRVGGIPEMIVSGSTGYLAAFRDPSDLAEGITKTIALQETSPEAVASACRSFVLRHYSREVVSSRMLQLYRELL	not soluble
MSNVTPKLVWPEDDYVDESLLEDHQGPARLEYDALVMLANLPPLTEEIMSRCPALPVKTRSTPEYTLVLDLDETLVHCSLTPLDNATMVFPVVFQNITYQVYVRLRPHLRTFLSRMAKTFEIIIFTASKKVYANKLCDILDPRKNHIRHRLFREHCVCVFGNYVKDLTILGRDPSKTMILDNAVQSFAYQLDNGIPIESWFHDRNDTELLKLCSFLEAIPTLGRDVREILRHKYRLRDHIPFYSIIHQQEGPGRLPLLEVAPPPVTEPNDEQLITQVVQKHPQLVQG	soluble
MGSDKIHHHHHHMTIRGKAYIAGIYEHPTRHAPDKSIAQLHAEVAKGALDDAGLTKADIDGYFCAGDAPGGVMAMVDYLGLKVRHFDSTDTGGCSYLVHLGHAAEAIAAGRCSVALITLAGKPRTGALPPRPVGAEGDFELAYGATTHNVYAMCAARHMHQYGTTSEQLAWIKVAASHHAQYNEHAMLRDVVTVEDVLNSPLIADPLHRMDCCVVTDGGGALIVTTEEIARSLKKPLVRMIGAGEAIKGPRGGHNLDLTYSAGVWSAPPAFEMAGVTPKDIKYASIYDSFTITVLMQLEDLGFCEKGQGGKFVADGNLISGVGKLPFNTDGGGLCSNHPVNRGGMTKLLEAVRQLRGEAHPKVQVPNCDLAIAHGTGGMLGIRHAASTCILERV	not soluble
MALPQRQIVRAENVKIGISWQCALCDLDIYARPLPGAEVIYFGRMVTTHGRYWKDYRNSPQPTNGYETISFDVPLDLRPVVIAINFYEGEAPQGVSGEIRIAVDENTYAAPFHISATRGNRGQGVAKIIETGKASGNHSVIVDPLHIIRAR	not soluble
RKQAEEKLVASERFLRMLTNQLPGMVGYWDRDLRCRFANDAYKEWFGRSPEQIIGLTVQELMGEELFRLSEPYIRGALQGEPQNFERELVKPNGETGYTWAQYIPDMVNDKAIGFFVLISDVT	not soluble
MGHHHHHHSHMWKVVNLPTDLFNSVMNVGRFTEEIEWLKFLALACSALGVTITKTLKIVCEVLSCDHNGGLPRIPFSTFQFLYTYIAEVDGEICASHVSRMLNYIEQEVIGPDGLITVNDFTQNPRVWLE	not soluble
MSLDFREVIEQRYHQLLSRYIAELTETSLYQAQKFSRKTIEHQIPPEEIISIHRKVLKELYPSLPEDVFHSLDFLIEVMIGYGMAYQEHQTLRGIQQEIKSEIEIAANVQQTLLGTKVPQEEALDIGAISVPAKQMSGDYYHFVKDKESINIAIADVIGKGIPAALCMSMIKYAMDSLPETGIHPSQVLKNLNRVVEQNVDASMFITMFYANYNMDKHQFTYASAGHEPGFYYSQKDNTFYDLEAKGLVLGISQDYDYKQFDQHLEKGDMIVLFSDGVTECRTENGFLERPDLQKLIEEHMCSSAQEMVKNIYDSLLKLQDFQLHDDFTLIVLRRKVEGGSHHHHHH	soluble
MTIREEGLIVKDQVLSCYLKGKRCLFVIVKILKDSSNSFLCTVQNKNGDQYVKKWFRKHENNEKLGRPTFKEVEKDWKENKESFMYPNVKALY	not soluble
MGSDKIHHHHHHMCTRFVYNGKETIVGFNFDIDLSEWEHTVIAEKDRFFIGIKMSDNKYHSFHGINRNGNVGTLLYVHGNDNAQFCSNESCYTIADLTENFIKGNLSFDDSLEIVKKKKITYAPDTTMQAMFSDRNGRVLIIEPGIGYRLEKEKYSLITNYSILKPELTNPYVLSGDNRYEKAKDLLQGYGENFSISNAFDVLRSVRQEGLWATRVSFIYSVAKNKVYYVLNNDFKNIAEYQF	not soluble
MGSDKIHHHHHHMLIPLYMRYHESLKPDPIIHDASALRLVPQIDYDFSKFDTAIRSSVGSAIRATYLDSLTKAFIQQHQQPIIVMIGCGLDARHERVGDIGKNVPFYELDLPDVIALRKQLMPPAENEILLAASAFDTDWMDELRSTYPQAQFLFVIEGVLMYFNEAQVKKLFEDLAVRFSGGEIAFDIGSTWMSRNSQKHHDVMKHMRAQFDYGCDDDHEMERWADNLHLISAKYMFDFPAWKRIGLLQAAIMWIVPFVRKSYRFLYYRIS	not soluble
MNMPKRYSEMTPHELREEIGALKEQAVKAEQLGIVNEFDVLMRKMAMARAYMTDINKFHIGETYELVEEPGVLFKITYFNGVFAWGYKQNDNEEIGIPISLLQEK	not soluble
GMILKTNLFGHTYQFKSITDVLAKANEEKSGDRLAGVAAESAEERVAAKVVLSKMTLGDLRNNPVVPYETDEVTRIIQDQVNDRIHDSIKNWTVEELREWILDHKTTDADIKRVARGLTSEIIAAVTKLMSNLDLIYGAKKIRVIAHANTTIGLPGTFSARLQPNHPTDDPDGILASLMEGLTYGIGDAVIGLNPVDDSTDSVVRLLNKFEEFRSKWDVPTQTCVLAHVKTQMEAMRRGAPTGLVFQSIAGSEKGNTAFGFDGATIEEARQLALQSGAATGPNVMYFETGQGSELSSDAHFGVDQVTMEARCYGFAKKFDPFLVNTVVGFIGPEYLYDSKQVIRAGLEDHFMGKLTGISMGCDVCYTNHMKADQNDVENLSVLLTAAGCNFIMGIPHGDDVMLNYQTTGYHETATLRELFGLKPIKEFDQWMEKMGFSENGKLTSRAGDASIFLK	soluble
MGSDKIHHHHHHMSKRKLTTKFEEEPLNFGTGMWNVGLTPNVCRCTLLLPTSCMTCLVGTGRTASGRWPATYVPFDESAISELKRYASFIAISNHSDLLSDPSGSRRFICINITGRIRNGVAINYLQPYAQAVQELREGECFYFSPEEEAVLMENNQEFELQTPVGHLFQQYFRSADEGEKCETLLAVDILGRIQKKSGFKLSATKIVHLGRILRKLGVPCKKMKNGNFYCVVEL	not soluble
MAQSLPPGDIDFQPRKIVFNAPYNEKQVFQIKLINTSALRIAFGINTYMRKLRVDTLCTPRCGVLDPNEHILLAVSCSAFAFGQVDTTNDRITVEWTNTPEGSDKQFCREWLEGEGMVRRKIILIEYNSTPIAPKPTTSSKPLLQATKLGMWLPIGFAASELYDYEKGVPLDRETCEKNLEKLIKNDRDVDYYEWLNLAQQCRTENHKLMEQMALGMAFTSAMANKQHKKVSRKADKDKITGAIVQNKMFSIETAEIWDRVLTLPNRKWFQISDVVTDGEVSNWSSANLVTHVRALARSVFDKVDEADPHMMCYATSQNACIYVPIDKDFFDGFAEYLIGGFGQEQSRDLKLQVRKLVTEVMGNKLNRVRARYNKMYGKDASEEAAKWMREELDKKDGELKECQLIFSKGSKSSYAIEVHGEEEEDLVKSEVLSGDEDVEME	not soluble
MFQKLLAFLTVVVFVSAAGNSCKIGKVINKPVIDGTPVYWPASWNETQPAPQLEKEQSCSWYVTIPRGYYAKLIISGKTTDKDSRFQTVDSAGNLIQTTHEKMVPYYFPASKFTLAVSNEGSATFAFKVVWWPLPTEKYVDIVASIGQVINVTETVVAMEYAAPGGITLLTFPEDLKNYNSLRSTLIYDGSSLTSATYVSNLFLLNQSKKQWTSSQDGIVVVNVEASRSMNKLLIQGSVYLAGIDEIVELHPQPNSIYNGTVNAGAHMSSLVAVSDLELQMIDVQMKDDSTVSVYYGSPDAFTLDKTYTGAELKKALPLPFGGYFVQFVVSSGKAVFTFKS	not soluble
MAKAFEEQRRSPDLEALPFEDRIGLLVDREAAERDTRRLTTRLKIAALRQTACVEDVDLRTPRGIDRAVFAKLVEGRWIDRHENLLVTGATGLGKSWLACALGHKACRDNRSVLYHRVPRLFEALALARGDGRYARLLKSLGRAQLLILDDWGLSVLTAAERRDLLEILEDRHGRASTIVTSQLPWTPGMEPLGTPRSPTPFSIASSTTPTASSSPEKACENAAPKPSPLTANQNTDSISHRPAAALEHHHHHH	not soluble
MDENALRFASYWRNSLADAESGKGCFERKDAQNFTHWHGIAAGRLDEAIVNKFFKGEKDDVETVNVILRPKVYFRLLQHGKDRSAGTPDIVTPIVTPALLSREGFLYPTPATSIPRDLLEPLPKGAFSIGEIGQYDKYKTTHTDPTHVMWTRP	not soluble
MSLMGYKNNRVGYQKELLTSRAVIKKDNYAIIPHDGLVQNAVPGFENVDISILGSPKLGATFVDYIATFHKNGQQTTGFGGDGIQTLVYVIDGRLRVSDGQETHELEAGGYAYFTPEMKMYLANAQEADTEVFLYKKRYQPLAGHQPYKVVGSIHDQQPEEYEGMTDVLLWSLLPKEFDFDMNMHILSFEPGASHAYIETHVQEHGAYLISGQGMYNLDNEWYPVEKGDYIFMSAYVPQAAYAVGREEPLMYVYSKDANREPELEGGSHHHHHH	soluble
TPYRAMYQYRPQNEDELELREGDRVDVMQQCDDGWFVGVSRRTQKFGTFPGNYVAPV	soluble
MSLKIGIDVGSTTAKLVAVDENDNLLFSKYERHNAKAKETILSFLKELLSEIGDKDISVRITGSIGMGISEKCSLPFVQEVVAAAKAIQKDYSHVTSMIDIGGEDAKVVFFNDAEATDLRMNGNCAGGTGAFIDQMAIILGVNIDELNQLAMNATQVYPIASRCGVFCKTDIQNLIAKNVSRENIAASIFRAVAVQTVVTLAHGCDITTPVLFCGGPLTFIPALRKAFIDYLSLDEKEIILPANGTLLPALGAALFHLDKEDYCKLSHLIDKEGHHHHHH	soluble
MVTLILLAGGSGTRASLNLPKQYYRIEEKMVIEYTLENVSRVKGVDNIILVSNPRFMDTALELKESFPKIKDVAKGGRTRNESIYNGFMKVPQKESKILVHDAVRPFTPRWVFERIISLLDERDVITTVNPITGNLIELDNGKVKRIYDRSKFAIGEAPTGYRYGALKKTLEVAVSNGTLNEIPHDIVLAMNAGFDVYVLPCNCFNLKITFKEDIEIARTLIKMLEERE	soluble
